Assay results reported in patent US20140366219A1, “Increasing Soybean Defense Against Pests” (priority 2011, published 2014).
Where “and” joins values, the source holds several entries; their conditions need not be identical. Equal values may be shown once.

How the values were obtained:
[1] = substrate: O=C(O)c1ccccc1O; experiment: Determination of kinetic parameters of GmSAMT1 (Lineweaver-Burk); format: biochemical, soybean; settings: other: SA varied 2 to 150 μM, SAM 200 μM, 25° C., 30 min
Method: A 50 μl volume containing 50 mM Tris-HCl, pH 7.5, 1 mM SA, and 3 μM ^14C-SAM with a specific activity of 51.4 mCi/mmol (Perkin-Elmer, Boston, Mass.) was used. The assay was initiated by addition of SAM, maintained at 25° C. for 30 min, and stopped by the addition of ethyl acetate (150 μl). After phase separation by 1 min centrifugation at 14,000 g, the upper organic phase was counted using a liquid scintillation counter (Beckman Coulter, Fullerton, Calif.). The radiation counts in the organic phase indicated the amount of synthesized MeSA. Substrate specificity assay was also performed for recombinant GmSAMT1, with a range of substrates including SA, benzoic acid, anthranilic acid, 3-hydroxybenzoic acid, 4-hydroxybenzoic acid, nicotinic acid, p-coumaric acid, caffeic acid, cinnamic acid, vanallic acid, jasmonic acid (JA), gibberellic acid, indole-3-acetic acid, and 2,4-dichlorophenoxyacetic acid. The activity with SA was set at 100%. Three independent assays were performed for each compound.
Appropriate enzyme concentrations and incubation time were determined in time course assays to make sure that the reaction velocity was linear during the assay period. Lineweaver-Burk plots yielded apparent Km values. To determine the Km for SA, concentrations of SA were independently varied from 2 to 150 μM, while SAM was held constant at 200 μM. […]

[2] = substrate: COC(=O)c1ccccc1O; experiment: Two-step radiochemical methyl ester esterase assay, kinetic parameters of GmSABP2-1; format: biochemical, soybean; settings: other: MeSA 5 μM to 100 μM, Lineweaver-Burk; 25.0 °C
Method: A two-step radiochemical esterase assay was performed to determine the activity of E. coli-expressed Glyma16g26060 following a protocol previously reported by (Forouhar et al., Proc. Natl. Acad. Sci. USA 102: 1773-1778, 2005). The reaction of the first step was the reaction of substrate 10 μM MeSA and purified recombinant E. coli-expressed Glyma16g26060 for 30 min at 25° C. After that, the sample was boiled to stop the reaction and denature the enzyme. The second reaction step was started with the addition of 3 μM ^14C labeled S-adenosyl-L-methionine (SAM) with a specific activity of 51.4 mCi/mmol (Perkin Elmer, Boston, Mass., USA), and respective known purified methyltransferase with high activity. Here, GmSAMT1 mentioned previously was used for SA methyltransferase enzyme. The reaction was preceded for 30 min at 25° C. Then radiolabeled products were extracted and the radioactivity was counted using a liquid scintillation counter.
Appropriate enzyme concentrations and incubation time were determined in time-course assays so that the reaction velocity was linear during the assay period. To determine the Km for MeSA, the concentrations of MeSA were independently varied in the range from 5 μM to 100 μM. Lineweaver-Burk plots were made to obtain apparent Km value. Optimal pH for GmSABP2-1 was assayed from pH 6.0 to pH 9.0. Final values are an average of three independent measurements.

SCN race 2 = experiment: Nematode infection and demographics assay in transgenic soybean hairy roots; format: in vivo, Heterodera glycines; settings: for reduction of susceptibility: susceptibility of vector control in susceptible background set at 100%; for (J3+J4)/total SCN ratio: overexpressing transgenic hairy roots, two weeks after inoculation
Source text: The soybean hairy root transformation system by infection with A. rhizogenes harboring the target genes were modified and used to study soybean resistance against SCN. A. rhizogenes K599 harboring the target gene, vector control and A. rhizogenes K599 alone were used to inoculate the TN02-275 soybeans, which are susceptible to SCN race 2. To better evaluate the resistance of the target gene, A. rhizogenes harboring the vector control and A. rhizogenes K599 alone were also used to inoculate the TN02-226 soybeans, which are resistant to SCN race 2. Generation of soybean hairy roots was modified as follows: First, soybean seeds were sterilized with chlorine gas. Second, a single layer of mature soybean seeds with intact seed coats were placed in open Petri dish, which was put in a bell jar desiccator within a fume hood. A beaker with 100 ml bleach was also placed in the desiccator and added 5 ml concentrated (12N) HCl along the side of the beaker. Then the seeds were kept in the closed desiccator immediately and maintained in the chlorine gas atmosphere overnight (about 16 h). After sterilization, seeds were transferred to the autoclaved filter paper moistened with sterilized distilled water in the Petri dishes for germination in a laminar flow hood. The germinated soybean seeds were sowed in sterilized vermiculite and six seeds were grown in each cell of 18-cell germination tray. The overnight cultured bacteria lawn of A. rhizogenes K599 with binary vector pJL-OFP, pJL-OFP-35S::GUS or pJL-OFP-35S::GmSAMT1 from LB medium plate containing […] kanamycin, or a culture of A. rhizogenes K599 lacking the binary vector grown in LB medium without any antibiotics was collected and suspended in 1 ml of sterile distilled water, respectively. Soybean cotyledonary nodes and upper hypocotyls of 5-day-old seedlings with unfolded cotyledons were stabbed three times by the syringe containing the bacterial suspension. In the first week, the trays were covered with the sterile transparent lids to retain high humidity. In the subsequent three weeks, plants were transferred into pots and the A. rhizogenes wounding sites were covered by wet sterile vermiculite to continually keep high humidity. Each day soybean plants were watered using sterile B&D solution containing 1 mM CaCl2, 0.5 mM KH2PO4, 10 μM Fe-citrate, 0.25 mM MgSO4, 0.25 mM K2SO4, 1 μM MnSO4, 2 μM H3BO4, 0.5 μM ZnSO4, 2 μM CuSO4, 0.1 μM CoSO4, 0.1 μM Na2MoO4, and 1 mM KNO3. The growth conditions for soybean plants were 12 h light/12 h dark at 28° C./25° C. with irradiance from fluorescent bulbs at 150-200 μmol m^−2·s^−1. After about four weeks, the hairy roots grew to approximately 10 cm in length. Soybean transgenic roots were detected based on OFP expression, using a fluorescence stereomicroscope (Olympus SZX12 fluorescence microscope and OFP filter). The tap root and non-transgenic roots were excised under the wounding site. Transgenic roots harboring pJL-OFP-35S::GUS screened by OFP signal were immersed in GUS solution (1 mM X-Gluc), 0.5 mM potassium ferrocyanide, 0.1% (v/v) TRITON™ X-100, 100 mM sodium phosphate buffer pH 7.0), and incubated at 37° C. overnight. In the following day, the X-Gluc solution was discarded. The roots were washed repeatedly with 70% ethanol to remove chlorophyll. Transgenic roots with visual GUS stain were recorded.
To easily compare the SCN infection, one transgenic root was left for the SCN inoculation. […]

GmICS1 (Glyma01g25690) = experiment: qRT-PCR of GmICS1 in transgenic hairy roots; set-up: species or system soybean; settings: Williams 82 transgenic hairy roots, without SCN treatment
GmICS2 (Glyma03g17420) = experiment: qRT-PCR of GmICS2 in transgenic hairy roots; set-up: species or system soybean; settings: Williams 82 transgenic hairy roots, without SCN treatment

B1: GmSAMT1 (Glycine max) (protein)
chain: MEVAQVLHMNGGVGDASYANNSLVQQKVICLTKPIREEAIRSLYCSTHPRSLAIADLGCSSGPNTLFVVSEFIKIVEKLCRELNHKSPEYKVFLNDLPGNDFNNIFKSLDSVKEKLCDEMESGIGPCYFSGVPGSFYGRVFPYQSLHFVHSSYSLQWLSKVPEGVDNNKGNVYIGSTSPKNVVRAYYEQFQRDFSLFLKCRAEELVEGGRMVLTFLGRRSDDPSSKDGCYIWELLATALSDMVLQGIIREEQLDTFNIPQYTPSPSEVKLEVLKEGSFAINRLEVSEVNWNALDEWNALDFESERSESLSDGEYNVAQCMRAVAEPMLISHFGEAIIEEVFCRYQQILAERMSKEKTKFINVTILLTRKA
Km [1]: 32.9 ± 1.7 µM and 46.2 ± 4.2 µM

B2: GmSABP2-1 (Glycine max) (protein)
chain: MGSQNCMDRKHYVLVHGACHGAWCWYKLKPRLESAGHKVTVLDLAASGTNMKKIEDVDTFSEYSAPLLQLMATIPSNEKLVLVGHSLGGLNIALAMEKFPEKVAVGVFLTAFAPDTEHHPSYVLEKYNERTPLAAWLDTEFAPSGNKTSMFFGPNFLSDKLYQLSPIEDLELAKTLARPSSLFMEDLTKQKNFSKEGYGSVPRAFIVCTEDLGIPLEYQLLMIQNVGFNDVVEVKDADHMVMLCKPQELFDSLQQIATKYA
Km [2]: 46.2 ± 2.2 µM

B3: GmSAMT1: soybean salicylic acid methyltransferase gene (SEQ ID NO: 1), over-expressed in transgenic hairy roots via pJL-OFP-35S::GmSAMT1 (nucleic acid)
DNA: ATGGAAGTAGCACAGGTACTCCACATGAACGGTGGCGTTGGAGACGCAAGCTATGCAAACAACTCCCTTGTTCAGCAAAAGGTGATTTGTTTGACAAAGCCCATAAGAGAGGAAGCCATAAGAAGCCTCTATTGCAGCACACACCCCAGAAGCTTGGCAATTGCAGATTTGGGTTGCTCTTCTGGACCAAACACTTTATTTGTTGTGTCTGAATTCATAAAAATTGTGGAGAAGCTTTGCCGAGAGCTGAACCACAAATCTCCAGAATACAAAGTCTTTCTGAATGATCTCCCTGGGAATGACTTCAACAACATCTTCAAGTCTCTTGACAGCGTCAAAGAGAAATTGTGTGATGAAATGGAAAGTGGGATCGGTCCATGCTACTTCTCGGGTGTTCCCGGTTCTTTCTATGGAAGGGTTTTCCCATATCAAAGTCTTCATTTTGTCCATTCCTCATACAGCCTTCAATGGCTATCTAAGGTTCCTGAGGGTGTAGACAACAACAAGGGCAATGTTTACATAGGCAGTACGAGCCCCAAAAATGTTGTGAGAGCTTACTATGAGCAATTTCAGAGAGATTTCTCTCTTTTTCTCAAGTGTCGTGCAGAGGAATTGGTTGAAGGAGGACGCATGGTTCTCACATTTTTGGGAAGAAGAAGCGATGATCCATCTAGCAAGGATGGTTGCTACATTTGGGAGCTTTTGGCTACTGCTCTTAGTGATATGGTCTTGCAGGGAATCATAAGAGAAGAGCAATTAGATACTTTTAACATCCCTCAATACACTCCATCCCCATCTGAAGTGAAATTGGAAGTTCTTAAAGAAGGATCATTCGCCATCAATCGTCTAGAGGTTTCTGAGGTGAATTGGAATGCTCTCGATGAGTGGAATGCTCTAGACTTTGAATCTGAAAGGTCTGAATCACTTAGTGATGGTGAATACAATGTGGCACAGTGCATGAGGGCTGTGGCAGAACCTATGCTGATTAGCCACTTTGGTGAAGCTATCATTGAAGAGGTTTTTTGCCGCTACCAGCAAATCTTGGCTGAACGTATGTCCAAGGAGAAAACCAAGTTCATCAATGTTACCATATTATTGACTAGAAAAGCATAA
modifications: Glycine Max
reduction of susceptibility (SCN race 2; TN02-275 background): 85.6% | reduction of susceptibility (SCN race 2; Williams 82 background): 71.2% | (J3+J4)/total SCN ratio (SCN race 2; TN02-275 background): 3.4% | (J3+J4)/total SCN ratio (SCN race 2; Williams 82 background): 5.3% | GmICS1 transcript abundance relative to controls (GmICS1 (Glyma01g25690)): 5.3 times | GmICS2 transcript abundance relative to controls (GmICS2 (Glyma03g17420)): 8.2 times

B4: GmSABP2-1: soybean methyl salicylate esterase gene (SEQ ID NO: 2), over-expressed in transgenic hairy roots (nucleic acid)
DNA: ATGGGTTCACAAAATTGTATGGATAGGAAGCACTATGTTCTGGTGCATGGGGCATGCCATGGAGCTTGGTGTTGGTATAAGCTCAAGCCACGCTTGGAATCTGCAGGCCATAAGGTCACAGTACTTGACCTTGCAGCTTCTGGAACCAACATGAAGAAAATTGAAGATGTTGATACTTTCTCAGAGTATTCTGCGCCTTTGTTGCAGCTAATGGCCACAATTCCCTCAAATGAGAAGTTAGTTCTAGTTGGTCACAGCCTTGGAGGGCTGAACATAGCACTTGCAATGGAGAAATTCCCAGAAAAGGTAGCAGTTGGTGTTTTCTTAACAGCTTTTGCTCCAGACACTGAACACCACCCATCTTATGTCTTGGAAAAGTACAATGAGAGGACCCCGTTAGCTGCATGGTTAGACACTGAATTTGCTCCAAGCGGAAACAAAACATCAATGTTCTTCGGCCCCAACTTCTTGTCCGACAAGCTCTACCAACTGTCCCCTATTGAGGACTTGGAATTGGCCAAGACTTTAGCAAGGCCATCATCGCTCTTCATGGAAGACTTGACTAAACAAAAGAACTTCTCCAAAGAGGGATATGGGTCAGTTCCACGTGCCTTTATTGTTTGCACGGAGGACCTTGGAATTCCATTGGAATATCAGCTCTTGATGATCCAAAATGTTGGGTTCAATGACGTTGTAGAGGTCAAAGACGCAGATCATATGGTTATGCTTTGCAAGCCACAAGAACTATTCGATTCCCTCCAGCAGATAGCGACTAAATATGCATGA
modifications: Glycine Max
reduction of susceptibility (SCN race 2; TN02-275 background): 84.5%
